In the supplement of paper PMC9170038:

System: MS2 coat protein
Assay: apparent KD of MS2 coat protein; higher = weaker reporter binding
Conditions: Eterna round: R107
In short: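 For every design, apparent KD is the median of normalised binding-curve fits from its clusters. The RNA switches were transcribed on-chip from Illumina sequencing clusters and titrated with SNAP-549-labelled MS2 coat protein (twofold steps, 0.7 or 1.5 nM to 3 µM; 0.8–1.5 h to 10–20 min per step). Titrations used 100 mM Tris-HCl pH 7.5, 80 mM KCl, 4 mM MgCl2, without or with constant ligand.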

[1] = input ligand: theophylline 20 uM
[2] = input ligand: theophylline 2 mM
[3] = input ligand: tryptophan 2.4 mM

Sequence	apparent KD of MS2 coat protein (input ligand: arginine 13.2 mM)	apparent KD of MS2 coat protein (input ligand: none)	apparent KD of MS2 coat protein [1]	apparent KD of MS2 coat protein [2]	apparent KD of MS2 coat protein [3]
UGUAUGUGAUUUGAUACCAGACCAGCGGGUGUUACUUGAGGAACACCCAAGUAGGUUUGGGUCCCUUGGCAGCAAAUCGCAUACU [SS Theo B #24 Ms9]	452 nM	39.2 nM	309 nM	1410 nM	79 nM
UGUAUGUGAUUUGAUACCAGACCAGCUGGUGGUACAUGAGCAUCAGCCAUGUAGGUUUGGGUCCCUUGGCAGCAAAUCGCAUACU [SS Theo B #24 Ms2]	20.7 nM	21 nM	28.7 nM	19.3 nM	21.4 nM
UGUAUGUGAUUUGAUACCAGACCAGCUGGUGGUCCAUGAGGAACACCCAUGGAGGUUUGGGUCCCUUGGCAGCAAAUCGCAUACU [SS Theo B #24 Ms20]	152 nM	–	130 nM	74.5 nM	89.7 nM
UGUAUGUGAUUUGAUACCAGACCAGCUGGUGUUAGAUGAGGAUCACCCAUCUAGGUUUGGGUCCCUUGGCAGCAAAUCGCAUACU [SS Theo B #24 Ms13]	18 nM	18 nM	22.1 nM	11.4 nM	18 nM
UGUAUGUGAUUUGAUACCAGAUCAGCUGGUUAUACAUGAGGAUCACCCAUGUUACUUUGGGUCCCUUGGCAGCAAAUCGCAUACU [SSTheo B #26]	165 nM	–	355 nM	–	535 nM
UGUCACUGUUUGGUUCAAUGAAGAAGAAUUCGAGGACCGGUACGGCCGCCACUCGCUAUGCAACAUGAGGAUCACCCAUGUAAAA [theeternabot_exclusion_MS2_Trp_A_31]	13.4 nM	–	17 nM	17.3 nM	–
UGUCAGCGAAAGUUGACAUGUCUUACCGGUCGAGGACCGGUACGGCCGCCACUCGAUCACUCGCACAUGAGGAUCACCCAUGUUG [SS Tryp A #21]	21.1 nM	–	24.6 nM	23.8 nM	–
UGUCCGUGAUCGGCCGCCACUCAACAAACCUGUGGAAACUGACAUGAGGAUCACCCAUGUUCUUGGAGGACCGGGAUUGCUUCGA [theeternabot_sameState_MS2_Trp_B_4]	16.7 nM	–	19.7 nM	18.5 nM	–
UGUCGAAACUGAAGGAGCGAGAUGACAACAUUGGGUCUAACAUGAGGAUCACCCAUGUAAUCUCAGGUAGGUCGCAGUGACAAAA [Exclusion Arginine B GF 15]	64.5 nM	94.7 nM	123 nM	133 nM	121 nM
UGUGGGCGCACGGCCGCCACUGUCUUCAUCUGUUUGUCUACAUGAGGAUCACCCAUGUUGGUUUACAGGACCGGGUGCAUCUAUG [SSTryp B #12]	39.5 nM	–	80.8 nM	52.1 nM	–
UGUGGGUCCGAAGAUACCAGCCAGCACAGCAUGUGUUUAAACAUGAGGAUCACCCAUGUCGGCCCUUGGCAGCUUGGUUUGGACG [theeternabot_exclusion_MS2_Theo_B_7]	15.5 nM	–	19.8 nM	–	15.8 nM
UGUUUGGUGCGCGAGUGUUGGAUAAAUGAUACCAGUGUAGAUGUACGCCCUUGGCAGCGUAUCCGAACAUGAGGAUCACCCAUGU [5.aB]	26.7 nM	–	44.9 nM	–	36.3 nM
UGUUUGGUGCGCGAGUGUUGGAUAAUUGAUACCAGUGUAGAUGUACGCCCUUGGCAGCGAAUCCGAACAUGAGGAUCACCCAUGU [5.aA]	36.7 nM	–	45.6 nM	–	30.2 nM
UGUUUUGUGGGAAGGAGCGCAUACUUCACAUGAGGAUCACCCAUGUCAAGACGUGAGUCAGUGCAGGUAGGUCGCCUAGUUAAGA [Same State - Arginine B (Freestyle 16)]	52.8 nM	70.4 nM	59 nM	61.9 nM	49.3 nM
UUAAAGGCACCUCAUGGGACUAUAAACCCGCGAGGACCGGUACGGCCGCCACUCGAAUAUCAACAUGAGGAUCACCCAUGUGGUU [theeternabot_exclusion_MS2_Trp_A_6]	16.2 nM	–	32.3 nM	29.6 nM	–
UUAAAUGUGACGGAUACCAGCGUGUUGUAGAACAUGAGGAUCACCCAUGUAGUGAUCAUGCGCCCUUGGCAGCUGGUAUGUUUGA [7.aA]	189 nM	–	543 nM	–	480 nM
UUAAGAGGAUAUCAAAUUUGAUUUUGUGAUACCAGAAUAAUUUUAUUCCCUUGGCAGCAUGACAUGAGGAUCACCCAUGUGUCUU [SSTheo A #1]	37.3 nM	–	44.3 nM	–	30.9 nM
UUAAUCAUAUAUGAAAACAUAUAUGCAGAAGGAGCGUGAUAAAACACAGGUAGGUCGCUGAAGGGAACAUGAGGAUCACCCAUGU [AstrosSSArgA#2]	47.4 nM	24.8 nM	49 nM	31.5 nM	32.4 nM

Sequence	apparent KD of MS2 coat protein (input ligand: arginine 13.2 mM)	apparent KD of MS2 coat protein (input ligand: none)	apparent KD of MS2 coat protein [1]	apparent KD of MS2 coat protein [2]	apparent KD of MS2 coat protein [3]
UUAAUCAUUAUAGAAAACUAUAAUGCAGAAGGAGCGUGAUAAAACACAGGUAGGUCGCUGAAGGGAACAUGAGGAUCACCCAUGU [AstrosSSArgA#6]	21.3 nM	30.3 nM	37.8 nM	39.4 nM	28.8 nM
UUACAUGAGGAUCACCCAUGUCAUACAGAAGGAGCGUCACAUAAGACAGGUAGGUCGCUGUUAUAUCAUACUAUUAUAUCCUCUA [JR_Nu_ExcArginiA_Sub028]	22 nM	40.4 nM	53.5 nM	38.2 nM	33 nM
UUACAUGAGGAUCACCCAUGUCAUACAGAAGGAGCGUCACAUAAGACAGGUAGGUCGCUGUUAUUUUUUACUAUUAUAUCCUCUA [JR_Nu_ExcArginiA_Sub030]	25 nM	30.8 nM	45.8 nM	31.7 nM	25.9 nM
UUAUAAGCACCUGAUACCAGUAUGAACCCGUACAUGAGGAUCACCCAUGUUAAUUUCUAUUACCCUUGGCAGCAGCCUUUUUCCU [theeternabot_sameState_MS2_Theo_B_2]	18.7 nM	–	28.8 nM	–	21.7 nM
UUAUAAGUACCGGUCCUCAGAUCCUCAUGACGAGGACCGGUACGGCCGCCACUCGAAACAUGAGGAUCACCCAUGUAAUAACAUC [Brourdmod21]	19 nM	–	27.5 nM	25.9 nM	–
UUAUGCAGGUCGGCCGCCACUACACACAUGAGGAUCACCCAUGUAGUUACUGGGUGAAGUGGCAGUAGGACCGGGACCCGCACAU [Brourdmod21]	151 nM	367 nM	388 nM	612 nM	383 nM
UUAUUUAUAAUUGAUACCAGUUUAAUGGCCGCAAAUCCUGACAUGAGGAUCACCCAUGUAAGCCCUUGGCAGCGGUUAUGGGUUU [XTheo B #25]	22.8 nM	–	26.4 nM	–	22.1 nM
UUAUUUAUAGGCGAUACCAGCCGAAUGGCCGCAAAUCCUAACAUGAGGAUCACCCAUGUCGGCCCUUGGCAGCGCCUAUGGGUUU [XTheo B #27]	114 nM	94.7 nM	255 nM	480 nM	93.3 nM
UUCAAAGGGAACGGUGCUGGUGACAGAGAUACCAGAGUAGUAAUACUCCCUUGGCAGCUCAGAACAUGAGGAUCACCCAUGUAAU [Exclusion Theophylline A GF22]	18.5 nM	18 nM	29.1 nM	59.2 nM	17.6 nM
UUCACGGGCACGGCCGCCACUAACCAACAUGAGGAUCACCCAUGUGUAUUGGACGACCUCUUUGCUAGGACCGGGUGUAUGGUUC [theeternabot_exclusion_MS2_Trp_B_15]	25.3 nM	–	32.3 nM	32.6 nM	–
UUCAGCUAGUCGGCCGCCACUACAAGAGGAUCACCCUUGUAAUCCUAACACUGCUUCGGCAGUGGUAGGACCGGGACUAGCUGAG	15.1 nM	14.4 nM	17.3 nM	13.8 nM	20.1 nM
UUCAGCUAGUCGGCCGCCACUACAAGAGGAUCACCCUUGUAGGUCCACACUGCUUCGGCAGUGAGUAGGACCGGGACUAGCUGAG	10.9 nM	11.3 nM	13.1 nM	13.7 nM	17.7 nM
UUCAGCUAGUCGGCCGCCACUACACGAGGAUCACCCGUGUUCCUAAAACACUGCUUCGGCAGUGGUAGGACCGGGACUAGCUGAG	27.7 nM	27.9 nM	33 nM	36.7 nM	123 nM
UUCGCUGAGGGAAGGAGCGUGAAGACAUGAGGAUCACCCAUGUAGAGGCGCCGAAGGCGUUCGCAGGUAGGUCGCCCUCAGUGAG [#1 Same State - Arginine B Attempt #23 (HarryS)]	17.1 nM	16.4 nM	24.7 nM	17.7 nM	17.3 nM
UUCGUAUUGUCGGCCGCCACUGCAACAUGAGGAUCACCCAUGUAAGAAUGGUUGUAAAUAUAUUACAGGACCGGGACAAUAGUAA [JR_ExcTryptoB_Sub018]	16 nM	–	24.1 nM	23.4 nM	–
UUCGUUUGCGGAAGGAGCGACGGACAUCGGUGACCCACGCACAUGAGGAUCACCCAUGUACGUCAGGUAGGUCGCCGCUAAGAGU [XArg-B4]	20.3 nM	17.4 nM	47.4 nM	41.3 nM	12.4 nM
UUCUACAUGAGGAUCACCCAUGUGGGUGAUACCAGCACUUUUUGGUGCCCUUGGCAGCACAUGAGAAUACCGUACGAUCGGCGAU [Arainbi]	122 nM	–	500 nM	–	609 nM
UUGACAUGAGGAUCACCCAUGUAAACUGAAGGAGCGUCGAAAAUGACAGGUAGGUCGCAGAAUAAUAAAGGUGAUGGUAAAUAUU [Exclusion Arginine AGF1]	21.4 nM	22.3 nM	34.5 nM	29.6 nM	29.3 nM
